The target of test [1] is T1, human mature TGFβ2 (PeproTech) (Homo sapiens, UniProt P61812). As to the kind of experiment: cell-based or functional assay.
Test [2] concerns the target T2, human mature TGFβ3 (Homo sapiens, UniProt P10600). As to the kind of experiment: cell-based or functional assay.
For test [3], the target named is T3, human mature TGFβ1 (Homo sapiens, UniProt P01137). As to the kind of experiment: cell-based or functional assay.
Test [4] addresses T1, human mature TGFβ2 (PeproTech). As to the kind of experiment: SPR; Biacore T200; antibody captured on a Protein A sensor chip (about 90 RU); mature TGFβ isoform injected, five-fold dilutions 0.008 nM to 5 nM; HBS-EP pH 7.4, 150 mM NaCl; 37 °C; 100 μl/min; 3 min association, 60 min dissociation; one-to-one Langmuir model, global fit. Particulars: both partners purified.
In test [5] the target is T2, human mature TGFβ3. The description is as above. Particulars: both partners purified.
For test [6], the target named is T3, human mature TGFβ1. Described as above. As to conditions: both partners purified.
In test [7] the target is T4, mature form of human TGFβ2 (made from LAP-TGFβ2 in CHO, for crystallization) (Homo sapiens).
T4 construct: Transforming Growth Factor-beta 2, human, mature form separated from LAP-TGFβ2; also called TGFb2; TGFβ2 dimer
T4 chain: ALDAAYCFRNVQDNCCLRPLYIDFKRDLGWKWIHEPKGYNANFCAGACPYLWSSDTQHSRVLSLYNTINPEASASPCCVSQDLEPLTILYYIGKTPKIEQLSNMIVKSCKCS
As to the kind of experiment: crystal structure; TGFβ2 and h4A11.v2 Fab mixed at 1:1 molar ratio, complex purified on Superdex-200 (25 mM Tris-HCl pH 7.5, 200 mM NaCl); crystals by vapor diffusion at 19 °C, 15% PEG 4000, 0.1 M Na Cacodylate pH 6.0; 2.9 Å. As to conditions: both partners purified.

T2 sequence (P10600 301-412): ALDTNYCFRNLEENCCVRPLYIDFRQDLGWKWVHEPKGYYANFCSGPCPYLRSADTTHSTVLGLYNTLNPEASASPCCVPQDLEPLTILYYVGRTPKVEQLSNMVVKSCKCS
T3 sequence (P01137 279-390): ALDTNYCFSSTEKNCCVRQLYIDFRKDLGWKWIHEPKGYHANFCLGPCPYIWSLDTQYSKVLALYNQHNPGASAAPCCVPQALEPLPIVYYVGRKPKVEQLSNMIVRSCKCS

B1: rabbit monoclonal antibody 4A11 (antibody, V domains shown)
VH: QSLEESGGRLVTPGTPLTLTCTVSGFSLSSYTVNWVRQAPGKGLEWIGYISYGGSAYYASWANGRFTISKTSATVDLKITSPTTEDTATYFCARHMQVGGAPTGSMAAFDPWGPGTLVTVSS
VL: AAVLTQTPSPVSAAVGGTVSISCQSSQSVYNNNYLSWFQQKPGQPPKLLIYGASTLTSGVPSRFKGSGSGTQFTLTISDVQCDDAATYYCAGGYSGSSDKYAFGGGTEVVVK
notes: VH of rbt4A11; VL of rbt4A11; Parental rabbit antibody; also called rbt4A11
B1: in test [1], the “TGFβ inhibition by HEK-Blue cells (IC50: nM), TGFb2; Blocking: Complete” value (shortened to “TGFβ inhibition … TGFb2; Blocking: Complete”) was determined as 0.9 nM. Also, in test [2], the “TGFβ inhibition by HEK-Blue cells (IC50: nM), TGFb3; Blocking: Complete” value (shortened to “TGFβ inhibition … TGFb3; Blocking: Complete”) amounted to 0.1 nM. In addition, the “TGFβ inhibition by HEK-Blue cells (IC50: nM), TGFb1” value (shortened to “TGFβ inhibition … TGFb1”) in test [3] was over 667 nM. Moreover, the values for the Kd in test [4], in test [5] and in test [6] were 0.0016 nM, 0.0012 nM and over 5 nM, respectively. The binding result in test [6] was “no binding (tested: 5 nM)”.

B2: humanized 4A11 variant 3 (antibody, V domains shown)
VH: EQQLQESGPGLVKPSETLSLTCTVTGFSLSSYTVNWVRQPAGKGLEWIGYISYGGSAYYASWANGRFTISKDSSKNQVSLKLSSVTAADTAVYFCARHMQVGGAPTGSMAAFDPWGPGTLVTVSS
VL: DAVLTQSPDSLAVSLGERATINCQSSQSVYNNNYLSWFQQKPGQPPKLLIYGASTLTSGVPDRFSGSGSGTDFTLTISSLQAEDVAVYYCAGGYSGSSDKYAFGGGTKVEIK
notes: as the VH of m12 (h4A11.v7): rbt4A11 CDRs and rabbit Vernier residues grafted on human germline IGHV4-59*06; as the VL of m6 (h4A11.v1): rbt4A11 CDRs and rabbit Vernier residues grafted on human germline IGKV4-1*01; human IgG1; also called h4A11.v3; v3; source: Expi293F, transient, purified (Protein A, SEC)
Turning to B2, in test [1], the “TGFβ inhibition … TGFb2; Blocking: Complete” value was determined as 3.9 nM. Besides, the “TGFβ inhibition … TGFb3; Blocking: Complete” value in test [2] stood at 0.2 nM. In addition, the “TGFβ inhibition … TGFb1” value in test [3] was over 667 nM. Besides, the Kd was 0.0096 nM in test [4], 0.0121 nM in test [5] and over 5 nM in test [6]. The binding result in test [6] was “no binding (tested: 5 nM)”.

B3: humanized 4A11 variant 1 (antibody, V domains shown)
VH: EQQLVESGGGLVQPGGSLRLSCAVSGFSLSSYTVNWVRQAPGKGLEWIGYISYGGSAYYASWANGRFTISKDSAKNSVYLQMNSLRAEDTAVYFCARHMQVGGAPTGSMAAFDPWGPGTLVTVSS
VL: B2 VL
notes: as the VH of m7 (h4A11.v2): rbt4A11 CDRs and rabbit Vernier residues grafted on human germline IGHV3-48*01; rbt4A11 CDRs and rabbit Vernier residues (VL positions 2, 4, 36, 43, 58) grafted on human germline IGKV4-1*01; human IgG1; also called h4A11.v1; v1; source: Expi293F, transient, purified (Protein A, SEC)
With B3, the “TGFβ inhibition by HEK-Blue cells (IC50: nM), TGFb2; Blocking: Incomplete” value (shortened to “TGFβ inhibition … TGFb2; Blocking: Incomplete”) in test [1] is over 667 nM. For the same molecule, the “TGFβ inhibition by HEK-Blue cells (IC50: nM), TGFb3; Blocking: Incomplete” value (from here on “TGFβ inhibition … TGFb3; Blocking: Incomplete”) in test [2] is over 667 nM. Moreover, the “TGFβ inhibition … TGFb1” value in test [3] was over 667 nM. Further, the Kd in test [4] is 0.0046 nM; in test [5] it was 0.0144 nM; in test [6], over 5 nM. For the same molecule, the binding result in test [6] is reported as “no binding (tested: 5 nM)”.

B4: humanized 4A11 variant 4 (antibody, V domains shown)
VH: B2 VH
VL: DAQLTQSPSSLSASVGDRVTITCQSSQSVYNNNYLSWFQQKPGKPPKLLIYGASTLTSGVPSRFSGSGSGTDFTLTISSLQPEDFATYYCAGGYSGSSDKYAFGGGTKVEIK
notes: as the VH of m12 (h4A11.v7): rbt4A11 CDRs and rabbit Vernier residues grafted on human germline IGHV4-59*06; as the VL of m7 (h4A11.v2): rbt4A11 CDRs and rabbit Vernier residues grafted on human germline IGKV1D-39*01; human IgG1; also called h4A11.v4; v4; source: Expi293F, transient, purified (Protein A, SEC)
With B4, the “TGFβ inhibition … TGFb2; Blocking: Complete” value in test [1] is 1.9 nM. In test [2], the “TGFβ inhibition … TGFb3; Blocking: Complete” value was found to be 0.1 nM. In test [3], the “TGFβ inhibition … TGFb1” value was over 667 nM. In addition, the Kd was 0.01 nM in test [4], 0.0101 nM in test [5] and over 5 nM in test [6]. For the same molecule, the binding result in test [6] is reported as “no binding (tested: 5 nM)”.

B5: humanized 4A11 variant 8 (antibody, V domains shown)
VH: B2 VH
VL: DAVLTQTPLSSPVTLGQPASISCQSSQSVYNNNYLSWFQQRPGQPPRLLIYGASTLTSGVPDRFSGSGAGTDFTLKISRVEAEDVGVYYCAGGYSGSSDKYAFGGGTKVEIK
notes: as the VH of m12 (h4A11.v7): rbt4A11 CDRs and rabbit Vernier residues grafted on human germline IGHV4-59*06; as the VL of m11 (h4A11.v6): rbt4A11 CDRs and rabbit Vernier residues grafted on human germline IGKV2-24*01; human IgG1; also called h4A11.v8; v8; source: Expi293F, transient, purified (Protein A, SEC)
In the case of B5, the “TGFβ inhibition … TGFb2; Blocking: Complete” value in test [1] came out at 4.8 nM. Besides, in test [2], the “TGFβ inhibition … TGFb3; Blocking: Complete” value was found to be 0.7 nM. The “TGFβ inhibition … TGFb1” value in test [3] was over 667 nM. The Kd in test [4] was 0.0082 nM; in test [5], 0.0141 nM; in test [6] it was over 5 nM. The binding result in test [6] is given as “no binding (tested: 5 nM)”.

B6: humanized 4A11 variant 7 (antibody, V domains shown)
VH: B2 VH
VL: EAVLTQSPGTLSLSPGERATLSCQSSQSVYNNNYLSWFQQKPGQPPRLLIYGASTLTSGVPDRFSGSGSGTDFTLTISRLEPEDFAVYYCAGGYSGSSDKYAFGGGTKVEIK
notes: rbt4A11 CDRs (Kabat and Chothia) and rabbit Vernier residues (VH positions 2, 24, 37, 48, 49, 67, 71, 78, 91, 105) grafted on human germline IGHV4-59*06; has S19, S79, K81 (Kabat numbering); rbt4A11 CDRs and rabbit Vernier residues (VL positions 2, 4, 36, 43, 58) grafted on human germline IGKV3-20*01; human IgG1; also called h4A11.v7; v7; source: Expi293F, transient, purified (Protein A, SEC)
Take B6: the “TGFβ inhibition … TGFb2; Blocking: Complete” value in test [1] turned out to be 0.9 nM. The “TGFβ inhibition … TGFb3; Blocking: Complete” value in test [2] came to 0.2 nM. The “TGFβ inhibition … TGFb1” value in test [3] is over 667 nM. Further, the figures for the Kd in test [4], in test [5] and in test [6] were 0.0063 nM, 0.0097 nM and over 5 nM, respectively. Moreover, the binding result in test [6] is listed as “no binding (tested: 5 nM)”.

B7: humanized 4A11 variant 5 (antibody, V domains shown)
VH: B3 VH
VL: B6 VL
notes: as the VH of m7 (h4A11.v2): rbt4A11 CDRs and rabbit Vernier residues grafted on human germline IGHV3-48*01; as the VL of m12 (h4A11.v7): rbt4A11 CDRs and rabbit Vernier residues grafted on human germline IGKV3-20*01; human IgG1; also called h4A11.v5; v5; source: Expi293F, transient, purified (Protein A, SEC)
In the case of B7, the “TGFβ inhibition … TGFb2; Blocking: Incomplete” value in test [1] is over 667 nM. Moreover, in test [2], the “TGFβ inhibition … TGFb3; Blocking: Incomplete” value is over 667 nM. Besides, in test [3], the “TGFβ inhibition … TGFb1” value is over 667 nM. In addition, the figures for the Kd in test [4], in test [5] and in test [6] were 0.0121 nM, 0.0139 nM and over 5 nM, respectively. For the same molecule, the binding result in test [6] is reported as “no binding (tested: 5 nM)”.

B8: humanized 4A11 variant 6 (antibody, V domains shown)
VH: B3 VH
VL: B5 VL
notes: as the VH of m7 (h4A11.v2): rbt4A11 CDRs and rabbit Vernier residues grafted on human germline IGHV3-48*01; rbt4A11 CDRs and rabbit Vernier residues (VL positions 2, 4, 36, 43, 58) grafted on human germline IGKV2-24*01; human IgG1; also called h4A11.v6; v6; source: Expi293F, transient, purified (Protein A, SEC)
For the molecule B8, the “TGFβ inhibition … TGFb2; Blocking: Incomplete” value in test [1] is over 667 nM. Also, the “TGFβ inhibition … TGFb3; Blocking: Incomplete” value in test [2] is over 667 nM. For the same molecule, the “TGFβ inhibition … TGFb1” value in test [3] is over 667 nM. Also, the Kd in test [4] was 0.0084 nM; in test [5] it was 0.0125 nM; in test [6], over 5 nM. Further, the binding result in test [6] is “no binding (tested: 5 nM)”.

B9: Fab fragment of h4A11.v2 (Fab, V domains shown)
VH: B3 VH
VL: B4 VL
notes: Fab heavy chain of h4A11.v2; its VH as the VH of m7; Fab light chain of h4A11.v2; its VL as the VL of m7; also called h4A11.v2-Fab; h4A11.v2 Fab; source: E. coli, purified (Protein G, SP-sepharose)
Turning to B9, the binding result in test [7] is “binds”.

B10: humanized 4A11 variant 2 (antibody, V domains shown)
VH: B3 VH
VL: B4 VL
notes: rbt4A11 CDRs (Kabat and Chothia) and rabbit Vernier residues (VH positions 2, 24, 37, 48, 49, 67, 71, 78, 91, 105) grafted on human germline IGHV3-48*01; has R19, Y79, Q81 (Kabat numbering); rbt4A11 CDRs and rabbit Vernier residues (VL positions 2, 4, 36, 43, 58) grafted on human germline IGKV1D-39*01; human IgG1; also called h4A11.v2; v2; source: Expi293F, transient, purified (Protein A, SEC)
For the molecule B10, the “TGFβ inhibition … TGFb2; Blocking: Incomplete” value in test [1] is over 667 nM. Further, the “TGFβ inhibition … TGFb3; Blocking: Incomplete” value in test [2] was over 667 nM. Besides, in test [3], the “TGFβ inhibition … TGFb1” value was over 667 nM. Also, the Kd is 0.0014 nM in test [4], 0.0133 nM in test [5] and over 5 nM in test [6]. Besides, in test [6], the binding result was “no binding (tested: 5 nM)”.

These data come from PMC8595303, “Dramatic activation of an antibody by a single amino acid change in framework” (Scientific Reports, 2021).
